Paper PMC5973842

Legend:
[1] = target: FITC-labeled eVP35 NPBP (Ebola virus); assay: fluorescence polarisation
eNP-3 (Ebola virus) = assay: fluorescence polarization
eNP-2 (Ebola virus) = assay: fluorescence polarization
eNP WT (Ebola virus) = assay: fluorescence polarization

| Substance | Kd [1] [nM] | Kd (eNP-3 (Ebola virus)) [nM] | Kd (eNP-2 (Ebola virus)) [nM] | Kd (eNP WT (Ebola virus)) [nM] |
| --- | --- | --- | --- | --- |
| Ebola virus nucleoprotein, full-length wildtype construct (from UniProt P18272 1-739) (natural protein) | 10.6 | – | – | – |
| eNP-3 (Ebola virus nucleoprotein N-terminal construct that includes the first 24 residues) (domain or fragment) | 12.8 | – | – | – |
| eNP-2 (Ebola virus nucleoprotein N-terminal construct lacking the first 24 residues) (domain or fragment) | 1.9 | – | – | – |
| 20 nt ssRNA | – | 15 | 68 | 13 |
